We go through four molecules from patent US20250352667A1.

Assay [1] addresses KEAP1 (wild-type full-length), His-tagged (human) (UniProt Q14145). As to the kind of experiment: AlphaScreen; 4.8 nM FLAG-NRF2, 150 nM His-KEAP1; Rep 1; control for I86V. In general terms: Bead proximity is the source of the signal in Alpha formats.
The target is the same in assay [2]. As to the kind of experiment: AlphaScreen; 38.4 nM FLAG-NRF2, 150 nM His-KEAP1; Rep 1; control for I28V.
Assay [3] has the same target. Description: AlphaScreen; 76.8 nM FLAG-NRF2, 150 nM His-KEAP1; Rep 3; control for I86V.
Assay [4] has the same target. As to the kind of experiment: AlphaScreen; 307.2 nM FLAG-NRF2, 150 nM His-KEAP1; Rep 3; control for I86V.
For assay [5] the target is unchanged. Description: AlphaScreen; 1228.8 nM FLAG-NRF2, 150 nM His-KEAP1; Rep 2; control for I28V.
Assay [6] shares this target. Description: AlphaScreen; 38.4 nM FLAG-NRF2, 150 nM His-KEAP1; Repeat 1 (same value as in Table 26).
For assay [7] the target is unchanged. As to the kind of experiment: AlphaScreen; 9.6 nM FLAG-NRF2, 150 nM His-KEAP1; signal against NRF2 only; control for I86V.
For assay [8] the target is unchanged. Description: AlphaScreen; FLAG-NRF2 wt isoform 1 4.8 nM, His-KEAP1 150 nM; Rep 1; positive control for Q75R.
For assay [9] the target is unchanged. Description: AlphaScreen; FLAG-NRF2 wt isoform 1 38.4 nM, His-KEAP1 150 nM; Rep 1; positive control for I86V.
Assay [10] has the same target. As to the kind of experiment: AlphaScreen; FLAG-NRF2 wt isoform 1 38.4 nM, His-KEAP1 150 nM; Rep 3; positive control for I86V.
Assay [11] has the same target. As to the kind of experiment: AlphaScreen; FLAG-NRF2 wt isoform 1 38.4 nM, His-KEAP1 150 nM; Rep 2; positive control for Q75R.
For assay [12] the target is unchanged. As to the kind of experiment: AlphaScreen; NRF2 wt isoform 1 38.4 nM, KEAP1 150 nM; signal against NRF2-only control; control for I86V.
The target is the same in assay [13]. Description: AlphaScreen; NRF2 wt isoform 1 307.2 nM, KEAP1 150 nM; signal against NRF2-only control; control for Q75R.
The target is the same in assay [14]. As to the kind of experiment: AlphaScreen; 153.6 nM FLAG-NRF2, 150 nM His-KEAP1; Rep 1.
For assay [15] the target is unchanged. Description: AlphaScreen; 307.2 nM FLAG-NRF2, 150 nM His-KEAP1; Rep 1.
Assay [16] shares this target. As to the kind of experiment: AlphaScreen; 1228.8 nM FLAG-NRF2, 150 nM His-KEAP1; Rep 1.
Assay [17] shares this target. As to the kind of experiment: AlphaScreen; average of three conditions; against wild-type NRF2 isoform 1.
Assay [18] shares this target. As to the kind of experiment: AlphaScreen; 9.6 nM FLAG-NRF2, 150 nM His-KEAP1 (same value as in Table 27).
The target is the same in assay [19]. As to the kind of experiment: AlphaScreen; FLAG-NRF2 Q75R 4.8 nM, His-KEAP1 150 nM; Rep 2.
Assay [20] shares this target. Description: AlphaScreen; FLAG-NRF2 Q75R 153.6 nM, His-KEAP1 150 nM; Rep 1.
Assay [21] shares this target. As to the kind of experiment: AlphaScreen; FLAG-NRF2 Q75R 38.4 nM, His-KEAP1 150 nM; Repeat 2.
Assay [22] has the same target. Description: AlphaScreen; mean over 9.6, 19.2 and 38.4 nM NRF2 Q75R, KEAP1 150 nM; relative to wild-type NRF2 isoform 1.
For assay [23] the target is unchanged. As to the kind of experiment: AlphaScreen; FLAG-NRF2 I86V 9.6 nM, His-KEAP1 150 nM; Rep 3.
Assay [24] has the same target. As to the kind of experiment: AlphaScreen; FLAG-NRF2 I86V 153.6 nM, His-KEAP1 150 nM; Rep 2.
For assay [25] the target is unchanged. Description: AlphaScreen; FLAG-NRF2 I86V 153.6 nM, His-KEAP1 150 nM; Rep 3.
Assay [26] has the same target. As to the kind of experiment: AlphaScreen; NRF2 I86V 4.8 nM, KEAP1 150 nM; signal against NRF2-only control.
The target is the same in assay [27]. Description: AlphaScreen; NRF2 I86V 1228.8 nM, KEAP1 150 nM; signal against NRF2-only control.

Where a chain is given by its changes, count along the chain named. In names and notes the source's numbering stands.

KEAP1 (wild-type full-length), His-tagged (human), sequence (Q14145 2-624 limits assumed): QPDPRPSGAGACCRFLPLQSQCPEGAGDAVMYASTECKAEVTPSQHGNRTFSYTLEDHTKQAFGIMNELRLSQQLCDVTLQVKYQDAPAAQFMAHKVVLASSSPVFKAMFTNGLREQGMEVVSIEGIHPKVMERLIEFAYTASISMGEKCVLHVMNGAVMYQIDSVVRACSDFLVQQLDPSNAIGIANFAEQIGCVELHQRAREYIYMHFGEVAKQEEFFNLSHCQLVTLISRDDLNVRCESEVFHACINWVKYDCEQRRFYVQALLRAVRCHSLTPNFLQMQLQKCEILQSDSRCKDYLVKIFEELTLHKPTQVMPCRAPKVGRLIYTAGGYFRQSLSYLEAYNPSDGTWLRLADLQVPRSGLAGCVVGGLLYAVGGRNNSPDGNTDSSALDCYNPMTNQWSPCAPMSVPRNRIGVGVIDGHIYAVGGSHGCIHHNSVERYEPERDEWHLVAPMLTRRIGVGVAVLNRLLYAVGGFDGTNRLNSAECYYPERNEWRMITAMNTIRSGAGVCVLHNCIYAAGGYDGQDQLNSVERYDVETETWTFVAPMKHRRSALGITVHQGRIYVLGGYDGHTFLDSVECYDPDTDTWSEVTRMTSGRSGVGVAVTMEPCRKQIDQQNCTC

B1: NRF2 isoform 1 (wild-type full-length), FLAG-tagged (protein)
chain: MMDLELPPPGLPSQQDMDLIDILWRQDIDLGVSREVFDFSQRRKEYELEKQKKLEKERQEQLQKEQEKAFFAQLQLDEETGEFLPIQPAQHIQSETSGSANYSQVAHIPKSDALYFDDCMQLLAQTFPFVDDNEVSSATFQSLVPDIPGHIESPVFIATNQAQSPETSVAQVAPVDLDGMQQDIEQVWEELLSIPELQCLNIENDKLVETTMVPSPEAKLTEVDNYHFYSSIPSMEKEVGNCSPHFLNAFEDSFSSILSTEDPNQLTVNSLNSDATVNTDFGDEFYSAFIAEPSISNSMPSPATLSHSLSELLNGPIDVSDLSLCKAFNQNHPESTAEFNDSDSGISLNTSPSVASPEHSVESSSYGDTLLGLSDSEVEELDSAPGSVKQNGPKTPVHSSGDMVQPLSPSQGQSTHVHDAQCENTPEKELPVSPGHRKTPFTKDKHSSRLEAHLTRDELRAKALHIPFPVEKIINLPVVDFNEMMSKEQFNEAQLALIRDIRRRGKNKVAAQNCRKRKLENIVELEQDLDHLKDEKEKLLKEKGENDKSLHLLKKQLSTLYLEVFSMLRDEDGKPYSPSEYSLQQTRDGNVFLVPKSKKPDVKKN
B1: the A-counts in [1] stood at 1810 A-counts; in assay [2], 2000 A-counts; in [3] it was 2880 A-counts; in assay [4], 2910 A-counts; in [5] it was 1520 A-counts; in assay [6] it was 2000 A-counts. Moreover, the values for the S/N in assay [7], in assay [12] and in assay [13] were 3.6, 3 and 1.4, respectively. In addition, the A-counts (NRF2 plus KEAP1) in assay [8] amounted to 725 A-counts; in [9], 3100 A-counts; in assay [10], 3130 A-counts; in [11], 1450 A-counts.

B2: NRF2 isoform 1 (I28V full-length), FLAG-tagged (protein)
chain: B1 chain with I28V
As for B2, the A-counts in assay [14] was determined as 1400 A-counts; in [15] it was 1310 A-counts; in [16] it was 995 A-counts. This molecule also gave a Reported Value (reduction in binding) in [17] of 30.2%. For the same molecule, the S/N in assay [18] was 3.4.

B3: NRF2 isoform 1 (Q75R full-length), FLAG-tagged (protein)
chain: B1 chain with Q75R
As for B3, the A-counts (NRF2 plus KEAP1) in assay [19] was 819 A-counts; in [20], 1070 A-counts; in [21] it was 1280 A-counts. For the same molecule, in [22], the Average Binding came out at 69.8%. The Avg. Reduction in Binding in [22] came out at 30.2%.

B4: NRF2 isoform 1 (I86V full-length), FLAG-tagged (protein)
chain: B1 chain with I86V
In the case of B4, the A-counts (NRF2 plus KEAP1) in assay [23] came out at 2860 A-counts; in [24], 2580 A-counts; in assay [25], 2500 A-counts. Besides, the S/N in assay [26] was determined as 2.9; in [27], 0.9.
